What was measured:
p53 DNA binding domain = p53 DNA binding domain (Homo sapiens, UniProt P04637 P04637:102-292); test: SPB-AAD, SPB-PEG4-AAD or SPB-Spermidine-AD + UV365 photocrosslinking, SDS-PAGE; conditions: chain copies: 4 stated; label: 5'-Cy5
NFAT1 DNA binding domain [1] = target: T1, NFAT1 DNA binding domain (Homo sapiens, UniProt Q13469 Q13469:399-676); test: EMSA; 20 mM Hepes pH 7.6, 150 mM NaCl, 1 mM DTT, 12% glycerol, RT; formaldehyde diminished binding, BFPX probes did not; also photocrosslinked; conditions: label: 5'-Cy5 (or 5'6-FAM)
T1 sequence: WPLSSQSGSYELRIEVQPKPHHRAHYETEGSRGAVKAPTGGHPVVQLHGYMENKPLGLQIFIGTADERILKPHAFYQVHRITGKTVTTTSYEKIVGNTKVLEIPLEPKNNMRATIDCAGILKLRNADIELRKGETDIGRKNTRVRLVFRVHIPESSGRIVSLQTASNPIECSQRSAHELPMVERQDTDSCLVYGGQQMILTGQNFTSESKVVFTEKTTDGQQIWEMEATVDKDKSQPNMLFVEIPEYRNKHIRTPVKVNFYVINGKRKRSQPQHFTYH
Method: FIG. 12C depicts Native EMSA assay of the effect of Formaldehyde (FA), BFPX probe (SPB-AAD, SPB-PEG4-AAD, and SPB-Spermidine-AD) at various concentrations, and UVA (365 nm) on the DNA binding by NFAT1. The binding reactions were performed in a buffer of 20 mM Hepes pH 7.6, 150 mM NaCl, 1 mM DTT, 12% glycerol. Typically protein and DNA are mixed to bind at room temperature for 30 min, followed by addition of BFPX probes for an additional 15 min and then UV illumination. In the case of FA treatment, the reaction time is 10 min at room temperature and then quenched by 250 mM glycine. […] Half of the binding reaction (7.5 μl) was run on a 10% PAGE 0.5×TBE gel and visualized by Cy5 fluorescence on DNA. […] Neither of these experimental imperfections affected the main conclusion of this experiment because the double stranded-DNA bands and the specific NFAT-DNA complex bands (the middle sharp bands) are well defined and can be monitored without the interference of the other bands.
(§1) FIG. 12D depicts the other half of binding reaction from the above experiments (FIG. 12C) were added SDS loading dye (2% SDS), boil for 10 min, and run on SDS gel (4-15% gradient gel). The gel was visualized by Cy5 fluorescence for DNA.

MEF2A DNA binding domain [2] = target: T2, MEF2A DNA binding domain (Homo sapiens, UniProt Q02078 Q02078:2-95); test: 4AMT-SDAD + UV365 photocrosslinking, reversed by TCEP; conditions: chain copies: 2; label: 5'6-FAM
NFAT1 DNA binding domain [3] = target: T1, NFAT1 DNA binding domain; test: SPB-AAD 100 uM + UV365 photocrosslinking, SDS-PAGE
Method: The UV illumination (as indicated by a positive sign) was carried out using a LED Chip (21.4 mm×21.4 mm, 365-370 nm, 30 Watt, sample distance 2 cm, exposure time 2-15 min at 4 degree C., here the exposure time is 15 min). Half of the binding reaction (7.5 μl) was run on a 10% PAGE 0.5×TBE gel and visualized by Cy5 fluorescence on DNA. The small amount of single stranded DNA is due to incomplete annealing. The higher smearing bands are most likely non-specific protein complexes. Neither of these experimental imperfections affected the main conclusion of this experiment because the double stranded-DNA bands and the specific NFAT-DNA complex bands (the middle sharp bands) are well defined and can be monitored without the interference of the other bands.
as §1
FIG. 12E depicts further characterization of BFPX crosslinking of NFAT1/DNA complexes using different DNA substrates and staining techniques. […] The reactions were then analyzed by SDS PAGE under denaturing condition as described in FIG. 12D. […]

[4] = target: Nkx2.5 DNA binding domain (homeodomain) (Homo sapiens, UniProt P52952 P52952:138-197); test: SPB-AAD, SPB-PEG4-AAD or SPB-Spermidine-AD + UV365 photocrosslinking, SDS-PAGE; none with formaldehyde or UV alone; conditions: label: 5'6-FAM
MEF2A DNA binding domain [5] = target: T2, MEF2A DNA binding domain; test: SPB-AAD 100 uM + UV365 photocrosslinking, SDS-PAGE; no crosslink without probe; conditions: chain copies: 2; label: 5'6-FAM

T2 sequence (Q02078 2-95, one chain of several): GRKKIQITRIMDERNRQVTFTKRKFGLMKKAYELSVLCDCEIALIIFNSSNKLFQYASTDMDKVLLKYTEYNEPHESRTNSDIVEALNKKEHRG
Chain of p53 DNA binding domain (P04637 102-292, one chain of several): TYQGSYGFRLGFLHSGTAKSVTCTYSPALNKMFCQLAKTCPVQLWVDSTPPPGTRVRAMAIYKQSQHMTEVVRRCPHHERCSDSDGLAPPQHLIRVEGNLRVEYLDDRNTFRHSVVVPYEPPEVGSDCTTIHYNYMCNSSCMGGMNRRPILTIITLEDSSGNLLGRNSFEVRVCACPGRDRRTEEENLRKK
Chain of Nkx2.5 DNA binding domain (homeodomain) (P52952 138-197, one chain of several): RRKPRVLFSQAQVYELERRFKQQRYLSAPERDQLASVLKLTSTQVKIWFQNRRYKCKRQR

B1: p53 tetramer site 37-mer (dsDNA)
DNA 1: GCTAGCGTAGCAGGCATGCCTAGGCATGCCTGCTACG
DNA 2: CGTAGCAGGCATGCCTAGGCATGCCTGCTACGCTAGC
p53 DNA binding domain
  binding result: binds

B2: ARRE2 27-mer (dsDNA)
DNA 1: CCATAGAGGAAAATTTGTTTCATACAG
DNA 2: CTGTATGAAACAAATTTTCCTCTATGG
NFAT1 DNA binding domain [1]
  binding result: binds

B3: MEF2 site 16-mer (only the core site printed) (dsDNA)
DNA 1: CTATAAATAG
DNA 2: CTATTTATAG
MEF2A DNA binding domain [2]
  binding result: binds

B4: c2 NFAT 16-mer (dsDNA)
DNA 1: GTAGAGGAATTTCCTA
DNA 2: TAGGAAATTCCTCTAC
NFAT1 DNA binding domain [3]
  binding result: binds

B5: Nkx2.5 site 19-mer (dsDNA)
DNA 1: ACTATTTTAAGAACGTGCT
DNA 2: AGCACGTTCTTAAAATAGT
[4]
  binding result: binds

B6: MEF2 consensus site DNA (44-mer; only the core site printed) (dsDNA)
DNA 1: CTATAAATAG
DNA 2: CTATTTATAG
MEF2A DNA binding domain [5]
  binding result: binds
